Results on 1 molecule are retold here after patent US8178486B2, “Method for promoting hair growth” (Animal Technology Institute Taiwan, priority 2005, dated 2012).

Type in all cases: in vivo
For data set [1], the system named is hair follicles. Kind of data set: Hair growth in young mice, topical application to shaved dorsal skin. The conditions noted are these: 2-month old male ICR mice; for time until hair growth was observed after the treatment: water control 15-17 days. The method, then: To study the effect of lactoferrin in hair growth in young mice, five male ICR (outbred) mice, each 2 months old, were shaved to expose a portion of dorsal skin. For each treated mouse, the exposed portion of dorsal skin was further marked with three areas as illustrated in FIG. 1A to be subsequently administered different treatments. Referring to FIG. 1B, the three marked areas (from left to right) were treated by spreading topically on the exposed skin areas 60 μl of bovine lactoferrin (as an aqueous solution of 100 mg/ml), 60 μl of bovine lactoferrin (of 200 mg/ml) and 60 μl of control vehicle (water), respectively, on a twice daily basis. Observation for hair growth in the marked areas was made daily after the first treatment. […] The hair growth was observed on all five mice administered 200 mg/ml of lactoferrin 2 to 4 days after the treatment.
Hematoxylin and Eosin (H&E) staining was performed to microscopically examine the skin area treated with 200 mg/ml of lactoferrin or the control vehicle for 14 days. […] Thus, the proliferation of the anagen phase hair follicles evidently reflected the hair growth observed in the lactoferrin-treated area.

Data set [2] relates to hair follicles. Kind of data set: Hair growth in aged mice, topical application to shaved dorsal skin. The conditions noted are these: 11-month old male ICR mice; for time until hair began to grow on the treated areas after the treatment: water control 21-23 days. Here is the method:
To further test whether lactoferrin could induce hair growth in aged mice, five male ICR mice, each 11 months old, were similarly shaved and marked with three areas of the exposed dorsal skin as described in Example 1. The marked areas of the mice were applied by spreading topically on the exposed skin areas 60 μl of aqueous solutions of bovine lactoferrin (100 mg/ml), 60 μl of bovine lactoferrin (200 mg/ml) and 60 μl of control vehicle (water) twice a day. Observation for hair growth in the marked areas was made daily after the first treatment. […] In general, the mice treated with 200 mg/ml of lactoferrin began to grow hair on the treated areas 4-6 days after the treatment. […] Spontaneous hair growth in the control area was only observed 21-23 days after the treatment. The hair growth-promoting effect of lactoferrin was consistently observed in all tested mice.
The H&E staining method was performed in a manner similar to Example 1 to examine the skin area treated with 200 mg/ml of lactoferrin or the control vehicle for 14 days. […] Thus, the hair follicles are clearly activated or triggered to re-enter from the telogen-phase to the anagen-phase. The activation of the hair follicles also reflects the hair growth observed in the lactoferrin-treated area.

The subject of data set [3] is hair follicles. Kind of data set: Hair growth in 4-month old female mice, topical application to shaved dorsal skin. Conditions: 60 μl of 200 mg/ml topically twice daily, after 10 days, not seen with control vehicle. Here is the method:
The marked areas of the mice were applied by spreading topically on the exposed skin areas 60 μl of aqueous solutions of bovine lactoferrin (200 mg/ml), 60 μl of control vehicle (water), and 60 μl of bovine lactoferricin, obtained as set forth in Example 3, (200 mg/ml) twice daily. Observation for hair growth in the marked areas is made daily after the first treatment. […] The hair growth-promoting effect of lactoferrin or lactoferricin was consistently observed in all tested mice. Although lactoferricin was prepared by the method described in Example 3 above, the present invention should not be limited to use only lactoferricin prepared in such manner. Lactoferricin prepared by other methods would still fall within the scope of the present invention.

The mark [4] stands for this setting: 200 mg/ml, 14 days of treatment, H&E histology.

B1: lactoferrin (protein, UniProt P24627 20-708, looked up)
Lactotransferrin: APRKNVRWCTISQPEWFKCRRWQWRMKKLGAPSITCVRRAFALECIRAIAEKKADAVTLDGGMVFEAGRDPYKLRPVAAEIYGTKESPQTHYYAVAVVKKGSNFQLDQLQGRKSCHTGLGRSAGWIIPMGILRPYLSWTESLEPLQGAVAKFFSASCVPCIDRQAYPNLCQLCKGEGENQCACSSREPYFGYSGAFKCLQDGAGDVAFVKETTVFENLPEKADRDQYELLCLNNSRAPVDAFKECHLAQVPSHAVVARSVDGKEDLIWKLLSKAQEKFGKNKSRSFQLFGSPPGQRDLLFKDSALGFLRIPSKVDSALYLGSRYLTTLKNLRETAEEVKARYTRVVWCAVGPEEQKKCQQWSQQSGQNVTCATASTTDDCIVLVLKGEADALNLDGGYIYTAGKCGLVPVLAENRKSSKHSSLDCVLRPTEGYLAVAVVKKANEGLTWNSLKDKKSCHTAVDRTAGWNIPMGLIVNQTGSCAFDEFFSQSCAPGADPKSRLCALCAGDDQGLDKCVPNSKEKYYGYTGAFRCLAEDVGDVAFVKNDTVWENTNGESTADWAKNLNREDFRLLCLDGTRKPVTEAQSCHLAVAPNHAVVSRSDRAAHVKQVLLHQQALFGKNGKNCPDKFCLFKSETKNLLFNDNTECLAKLGGRPTYEEYLGTEYVTAIANLKKCSTSPLLEACAFLTR
notes: 78-80 kDa glycoprotein; commercially obtained bovine lactoferrin applied as aqueous solution
Consider B1, for which, in the data set on hair follicles [1] (setting [4]), the “number of anagen phase hair follicles relative to control vehicle-treated area” value is reported as “approximately two-fold”. In addition, the “skin thickness versus control vehicle-treated skin” value in the data set on hair follicles [1] (setting [4]) is “no significant difference”. Also, the “time until hair growth was observed after the treatment” value in the data set with hair follicles [1] (60 μl of 100 mg/ml aqueous solution topically twice daily) is 3 to 5 days; with hair follicles [1] (60 μl of 200 mg/ml aqueous solution topically twice daily), 2 to 4 days. Moreover, in the data set with hair follicles [1] (lactoferrin-treated skin (100 and 200 mg/ml), twice daily), the “speed of hair growth versus control vehicle-treated skin” value is “more rapid hair growth”. Moreover, in the data set on hair follicles [2] (200 mg/ml, 14 days, H&E), the “subcutaneous fat and skin thickness versus control area” value was “increased subcutaneous fat and increased thickness of skin”. Besides, the “hair follicle phase in histological examination” value in the data set on hair follicles [2] (200 mg/ml, 14 days, H&E, control area uniform telogen-phase follicles) is “a large number of anagen-phase (actively growing stage) hair follicles”. In addition, the “hair growth observed in the treated skin area” value is recorded as “prominent hair growth” in the data set on hair follicles [2] (200 mg/ml, after 11 days of treatment, not seen with control vehicle) and “prominent hair growth” in the data set with hair follicles [3]. Besides, the “time until hair began to grow on the treated areas after the treatment” value was 6 to 8 days in the data set on hair follicles [2] (60 μl of 100 mg/ml topically twice a day) and 4 to 6 days in the data set with hair follicles [2] (60 μl of 200 mg/ml topically twice a day). The “inflammation and morphological abnormalities of the treated skin” value with hair follicles [2] (topical lactoferrin twice a day) was “no inflammation and morphological abnormalities”.
